# Positions count from the first letter of the chain named. Names may count otherwise.
# B1: CE115HA000 W33Y one-arm antibody (antibody, human IgG1, kappa, L234A L235A, N297A, name in Kabat numbering)
# heavy: QVQLVESGGGVVQPGRSLRLSCAASGFTFSNAYMHWVRQAPGKGLEWVAQIKAKSNNYATYYAESVKGRFTISRDDSKNSLYLQMNSLKTEDTAVYYCRYVHYGAYYGVDAWGQGTTVTVSSASTKGPSVFPLAPSSKSTSGGTAALGCLVKDYFPEPVTVSWNSGALTSGVHTFPAVLQSSGLYSLSSVVTVPSSSLGTQTYICNVNHKPSNTKVDKKVEPKSCDKTHTCPPCPAPEAAGGPSVFLFPPKPKDTLMISRTPEVTCVVVDVSHEDPEVKFNWYVDGVEVHNAKTKPREEQYASTYRVVSVLTVLHQDWLNGKEYKCKVSNKALPAPIEKTISKAKGQPREPQVYTLPPSRCELTKNQVSLSCAVKGFYPSDIAVEWESNGQPENNYKTTPPVLDSDGSFFLVSKLTVDKSRWQQGNVFSCSVMHEALHNHYTQKSLSLSPDYKDDDDK
# chain: EPKSSDKTHTCPPCPAPELLGGPSVFLFPPKPKDTLMISRTPEVTCVVVDVSHEDPEVKFNWYVDGVEVHNAKTKPREEQYNSTYRVVSVLTVLHQDWLNGKEYKCKVSNKALPAPIEKTISKAKGQPREPQVCTLPPSRDELTKNQVSLWCLVKGFYPSDIAVEWESNGQPENNYKTTPPVLDSDGSFFLYSKLTVDKSRWQQGNVFSCSVMHEALHNRYTQKSLSLSP
# light: DIVMTQSPLSLPVTPGEPASISCRSSQSLVHSNRNTYLHWYQQKPGQAPRLLIYKVSNRFSGVPDRFSGSGSGTDFTLKISRVEAEDVGVYYCGQGTQVPYTFGQGTKLEIKRTVAAPSVFIFPPSDEQLKSGTASVVCLLNNFYPREAKVQWKVDNALQSGNSQESVTEQDSKDSTYSLSSTLTLSKADYEKHKVYACEVTHQGLSSPVTKSFNRGEC
# B2: CE115HA000 Y97G one-arm antibody (antibody, human IgG1, kappa, L234A L235A, N297A, name in Kabat numbering)
# heavy: B1 heavy with Y33W, Y103G
# chain: B1 chain
# light: B1 light
# B3: CE115HA000 Y55S one-arm antibody (antibody, human IgG1, kappa, L234A L235A, N297A, name in Kabat numbering)
# heavy: B1 heavy with Y33W, Y58S
# chain: B1 chain
# light: B1 light
# B4: CE115HA000 Y58Q one-arm antibody (antibody, human IgG1, kappa, L234A L235A, N297A, name in Kabat numbering)
# heavy: B1 heavy with Y33W, Y61Q
# chain: B1 chain
# light: B1 light
# B5: CE115HA000 Y55D one-arm antibody (antibody, human IgG1, kappa, L234A L235A, N297A, name in Kabat numbering)
# heavy: B1 heavy with Y33W, Y58D
# chain: B1 chain
# light: B1 light
# B6: CE115HA000 Y55G one-arm antibody (antibody, human IgG1, kappa, L234A L235A, N297A, name in Kabat numbering)
# heavy: B1 heavy with Y33W, Y58G
# chain: B1 chain
# light: B1 light
# B7: CE115HA000 Y59E one-arm antibody (antibody, human IgG1, kappa, L234A L235A, N297A, name in Kabat numbering)
# heavy: B1 heavy with Y33W, Y62E
# chain: B1 chain
# light: B1 light
# B8: CE115HA000 Y100A one-arm antibody (antibody, human IgG1, kappa, L234A L235A, N297A, name in Kabat numbering)
# heavy: B1 heavy with Y33W, Y106A
# chain: B1 chain
# light: B1 light
# B9: CE115HA000 Y59A one-arm antibody (antibody, human IgG1, kappa, L234A L235A, N297A, name in Kabat numbering)
# heavy: B1 heavy with Y33W, Y62A
# chain: B1 chain
# light: B1 light
# B10: CE115HA000 Y97R one-arm antibody (antibody, human IgG1, kappa, L234A L235A, N297A, name in Kabat numbering)
# heavy: B1 heavy with Y33W, Y103R
# chain: B1 chain
# light: B1 light
# B11: CE115HA000 Y97A one-arm antibody (antibody, human IgG1, kappa, L234A L235A, N297A, name in Kabat numbering)
# heavy: B1 heavy with Y33W, Y103A
# chain: B1 chain
# light: B1 light
# B12: CE115HA000 Y97P one-arm antibody (antibody, human IgG1, kappa, L234A L235A, N297A, name in Kabat numbering)
# heavy: B1 heavy with Y33W, Y103P
# chain: B1 chain
# light: B1 light
# B13: CE115HA000 Y97D one-arm antibody (antibody, human IgG1, kappa, L234A L235A, N297A, name in Kabat numbering)
# heavy: B1 heavy with Y33W, Y103D
# chain: B1 chain
# light: B1 light
# B14: CE115HA000 Y97S one-arm antibody (antibody, human IgG1, kappa, L234A L235A, N297A, name in Kabat numbering)
# heavy: B1 heavy with Y33W, Y103S
# chain: B1 chain
# light: B1 light
# B15: CE115HA000 Y59D one-arm antibody (antibody, human IgG1, kappa, L234A L235A, N297A, name in Kabat numbering)
# heavy: B1 heavy with Y33W, Y62D
# chain: B1 chain
# light: B1 light
# B16: CE115HA000 Y58A one-arm antibody (antibody, human IgG1, kappa, L234A L235A, N297A, name in Kabat numbering)
# heavy: B1 heavy with Y33W, Y61A
# chain: B1 chain
# light: B1 light
# B17: CE115HA000 Y58L one-arm antibody (antibody, human IgG1, kappa, L234A L235A, N297A, name in Kabat numbering)
# heavy: B1 heavy with Y33W, Y61L
# chain: B1 chain
# light: B1 light
# B18: CE115HA000 Y100D one-arm antibody (antibody, human IgG1, kappa, L234A L235A, N297A, name in Kabat numbering)
# heavy: B1 heavy with Y33W, Y106D
# chain: B1 chain
# light: B1 light
# B19: CE115HA000 Y58S one-arm antibody (antibody, human IgG1, kappa, L234A L235A, N297A, name in Kabat numbering)
# heavy: B1 heavy with Y33W, Y61S
# chain: B1 chain
# light: B1 light
# B20: CE115HA000 Y59S one-arm antibody (antibody, human IgG1, kappa, L234A L235A, N297A, name in Kabat numbering)
# heavy: B1 heavy with Y33W, Y62S
# chain: B1 chain
# light: B1 light
# B21: CE115HA000 Y58D one-arm antibody (antibody, human IgG1, kappa, L234A L235A, N297A, name in Kabat numbering)
# heavy: B1 heavy with Y33W, Y61D
# chain: B1 chain
# light: B1 light
# B22: CE115HA000 Y58N one-arm antibody (antibody, human IgG1, kappa, L234A L235A, N297A, name in Kabat numbering)
# heavy: B1 heavy with Y33W, Y61N
# chain: B1 chain
# light: B1 light
# B23: CE115HA000 Y58K one-arm antibody (antibody, human IgG1, kappa, L234A L235A, N297A, name in Kabat numbering)
# heavy: B1 heavy with Y33W, Y61K
# chain: B1 chain
# light: B1 light
# Molecular target: T1, CD3 epsilon homodimer protein (UniProt P07766 23-126)
# T1 construct: immobilized on Sensor chip CM4 by amine coupling; also called CD3 (CD3 epsilon)
# T1 sequence (P07766 23-126): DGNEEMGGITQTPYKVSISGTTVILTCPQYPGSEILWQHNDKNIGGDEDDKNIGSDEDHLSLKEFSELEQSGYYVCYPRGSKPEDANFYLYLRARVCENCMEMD
# Test: SPR (Biacore T200), CD3 epsilon homodimer on CM4 chip, one-arm antibody as analyte, 25 C;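 further: homodimer attached to the sensor surface via amine coupling, HBS-EP+ used as running buffer during binding runs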
row,Binder,ratio of amounts bound (altered form / CE115HA000)
1,B1,0.66
2,B2,0.18
3,B3,0.26
4,B4,0.19
5,B5,0.45
6,B6,0.55
7,B7,0.66
8,B8,0.9
9,B9,0.85
10,B10,0.27
11,B11,0.16
12,B12,0.11
13,B13,0.24
14,B14,0.18
15,B15,0.7
16,B16,0.22
17,B17,0.27
18,B18,0.52
19,B19,0.18
20,B20,0.94
21,B21,0.11
22,B22,0.33
23,B23,0.3

# Reference: patent publication US20210388087A1 (Chugai, published 2021)
